Changes are numbered by the printed parent chain. Values belong to the binder of their own block, whether it stands above or below them.
Assays:
[1] = biological target: T1, Astn1 P1268L (control peptide) peptide on HLA-A*02:01 (human); assay: cytokine release
T1 peptide: KLYGLDWAEL

[2] = biological target: T2, HA-1^H (minor histocompatibility antigen 1, HMHA1 gene, H allele) peptide on HLA-A*02:01 (human); assay: multimer staining
T2 peptide: VLHDDLLEA
Excerpt: Transduced CD8 T cells were enriched by FACS using the murine constant beta region as a marker for transduction. After expansion of these cells, they were stained with an HA-1^H-MHC-multimer and antibodies against CD8 and the murine constant beta region (mCb) and analyzed by flow cytometry.
The nucleotide sequences of the isolated TCRs were codon optimized using the GeneOptimizer™ algorithm (ThermoFisher) and the constant regions were murinized. Codon optimized and murinized TCRs were used for all further experiments described herein. They were stained with an HA-1^H-MHC-multimer (immunAware) and antibodies against CD8 and the murine constant beta region. […] (FIG. 1)

[3] = biological target: T2, HA-1^H (minor histocompatibility …); assay: killing
[4] = biological target: HA-1^R-peptide (…) loaded on HLA-A*02:01 encoded molecules on T2 cells (human); assay: cell-based or functional assay
[5] = biological target: T3, HA-1^R (minor histocompatibility antigen 1, HMHA1 gene, R allele) peptide on HLA-A*02:01 (human); assay: cytokine release
T3 peptide: VLRDDLLEA

B1: TCR_3 (TCR, V domains shown)
Valpha: SQQGEEDPQALSIQEGENATMNCSYKTSINNLQWYRQNSGRGLVHLILIRSNEREKHSGRLRVTLDTSKKSSSLLITASRAADTASYFCATGDQTGANNLFFGTGTRLTVIP
Vbeta: DTGVSQNPRHKITKRGQNVTFRCDPISEHNRLYWYRQTLGQGPEFLTYFQNEAQLEKSRLLSDRFSAERPKGSFSTLEIQRTEQGDSAMYLCASSLTRTEKLFFGSGTQLSVL
binding result [1]: no recognition
binding result [2]: recognises

B3: TCR_5 (TCR, V domains shown)
Valpha: TQLLEQSPQFLSIQEGENLTVYCNSSSVFSSLQWYRQEPGEGPVLLVTVVTGGEVKKLKRLTFQFGDARKDSSLHITAAQTGDTGLYLCAGAGNNDMRFGAGTRLTVKP
Vbeta: B1 Vbeta with T97V, T99G, E100I, K101E, L102A, S106Q, Q109R, S111T, L113V
binding result [1]: no recognition
binding result [2]: recognises

B5: TCR_1, P01849 1-136 (TCR, not shown: a dimerising Fc or GST)
TCR alpha: GENVEQHPSTLSVQEGDSAVIKCTYSDSASNYFPWYKQELGKGPQLIIDIRSNVGEKKDQRIAVTLNKTAKHFSLHITETQPEDSAVYFCAASDLNFGKGTSLLVTPHIQNPEPAVYQLKDPRSQDSTLCLFTDFDSQINVPKTMESGTFITDKTVLDMKAMDSKSNGAIAWSNQTSFTCQDIFKETNATYPSSDVPCDATLTEKSFETDMNLNFQNLSVMGLRILLLKVAGFNLLMTLRLWSS
TCR beta: DTGVSQNPRHKITKRGQNVTFRCDPISEHNRLYWYRQTLGQGPEFLTYFQNEAQLEKSRLLSDRFSAERPKGSFSTLEIQRTEQGDSAMYLCASSLVSRVDGYTFGSGTRLTVVE
peptide concentration needed for recognition (IFN-γ release), relative to HA-1^H [4]: > 10000 times

B8: TCR_2, P01849 1-136 (TCR, not shown: a dimerising Fc or GST)
TCR alpha: GENVEQHPSTLSVQEGDSAVIKCTYSDSASNYFPWYKQELGKGPQLIIDIRSNVGEKKDQRIAVTLNKTAKHFSLHITETQPEDSAVYFCAAHTPGYSTLTFGKGTMLLVSPDIQNPEPAVYQLKDPRSQDSTLCLFTDFDSQINVPKTMESGTFITDKTVLDMKAMDSKSNGAIAWSNQTSFTCQDIFKETNATYPSSDVPCDATLTEKSFETDMNLNFQNLSVMGLRILLLKVAGFNLLMTLRLWSS
TCR beta: DTGVSQNPRHKITKRGQNVTFRCDPISEHNRLYWYRQTLGQGPEFLTYFQNEAQLEKSRLLSDRFSAERPKGSFSTLEIQRTEQGDSAMYLCASSPRAGGETQYFGPGTRLLVLE
peptide concentration needed for recognition (IFN-γ release), relative to HA-1^H [4]: > 10000 times

B9: TCR_3, P01849 1-136 (TCR, not shown: a dimerising Fc or GST)
TCR alpha: SQQGEEDPQALSIQEGENATMNCSYKTSINNLQWYRQNSGRGLVHLILIRSNEREKHSGRLRVTLDTSKKSSSLLITASRAADTASYFCATGDQTGANNLFFGTGTRLTVIPYIQNPEPAVYQLKDPRSQDSTLCLFTDFDSQINVPKTMESGTFITDKTVLDMKAMDSKSNGAIAWSNQTSFTCQDIFKETNATYPSSDVPCDATLTEKSFETDMNLNFQNLSVMGLRILLLKVAGFNLLMTLRLWSS
TCR beta: DTGVSQNPRHKITKRGQNVTFRCDPISEHNRLYWYRQTLGQGPEFLTYFQNEAQLEKSRLLSDRFSAERPKGSFSTLEIQRTEQGDSAMYLCASSLTRTEKLFFGSGTQLSVLE
peptide concentration needed for recognition (IFN-γ release), relative to HA-1^H [4]: > 10000 times

B10: TCR_4, P01849 1-136 (TCR, not shown: a dimerising Fc or GST)
TCR alpha: GENVEQHPSTLSVQEGDSAVIKCTYSDSASNYFPWYKQELGKGPQLIIDIRSNVGEKKDQRIAVTLNKTAKHFSLHITETQPEDSAVYFCAGRGKLTFGTGTRLTIIPNIQNPEPAVYQLKDPRSQDSTLCLFTDFDSQINVPKTMESGTFITDKTVLDMKAMDSKSNGAIAWSNQTSFTCQDIFKETNATYPSSDVPCDATLTEKSFETDMNLNFQNLSVMGLRILLLKVAGFNLLMTLRLWSS
TCR beta: B9 TCR beta with T97V, T99D
peptide concentration needed for recognition (IFN-γ release), relative to HA-1^H [4]: > 10000 times

B11: TCR_5, P01849 1-136 (TCR, not shown: a dimerising Fc or GST)
TCR alpha: TQLLEQSPQFLSIQEGENLTVYCNSSSVFSSLQWYRQEPGEGPVLLVTVVTGGEVKKLKRLTFQFGDARKDSSLHITAAQTGDTGLYLCAGAGNNDMRFGAGTRLTVKPNIQNPEPAVYQLKDPRSQDSTLCLFTDFDSQINVPKTMESGTFITDKTVLDMKAMDSKSNGAIAWSNQTSFTCQDIFKETNATYPSSDVPCDATLTEKSFETDMNLNFQNLSVMGLRILLLKVAGFNLLMTLRLWSS
TCR beta: B9 TCR beta with T97V, T99G, E100I, K101E, L102A, S106Q, Q109R, S111T, L113V
peptide concentration needed for recognition (IFN-γ release), relative to HA-1^H [4]: > 10000 times

B12: TCR_6, P01849 1-136 (TCR, not shown: a dimerising Fc or GST)
TCR alpha: RGEDVEQSLFLSVREGDSSVINCTYTDSSSTYLYWYKQEPGAGLQLLTYIFSNMDMKQDQRLTVLLNKKDKHLSLRIADTQTGDSAIYFCAEKWIIFGKGTRLHILPNIQNPEPAVYQLKDPRSQDSTLCLFTDFDSQINVPKTMESGTFITDKTVLDMKAMDSKSNGAIAWSNQTSFTCQDIFKETNATYPSSDVPCDATLTEKSFETDMNLNFQNLSVMGLRILLLKVAGFNLLMTLRLWSS
TCR beta: B9 TCR beta with R98T, T99P, E100D, K101G, L102Y, F103T, Q109R, S111T, L113V
peptide concentration needed for recognition (IFN-γ release), relative to HA-1^H [4]: > 10000 times

Continued, in another order:

binding result [1]: no recognition
B2: TCR_6 (TCR, V domains shown)
Valpha: GEDVEQSLFLSVREGDSSVINCTYTDSSSTYLYWYKQEPGAGLQLLTYIFSNMDMKQDQRLTVLLNKKDKHLSLRIADTQTGDSAIYFCAEKWIIFGKGTRLHILP
Vbeta: B1 Vbeta with R98T, T99P, E100D, K101G, L102Y, F103T, Q109R, S111T, L113V
binding result [3]: recognises

binding result [1]: no recognition
binding result [2]: recognises
B4: TCR_4 (TCR, V domains shown)
Valpha: GENVEQHPSTLSVQEGDSAVIKCTYSDSASNYFPWYKQELGKGPQLIIDIRSNVGEKKDQRIAVTLNKTAKHFSLHITETQPEDSAVYFCAGRGKLTFGTGTRLTIIP
Vbeta: B1 Vbeta with T97V, T99D

binding result [5]: no recognition
binding result [1]: no recognition
binding result [2]: recognises
B6: TCR_2 (TCR, V domains shown)
Valpha: GENVEQHPSTLSVQEGDSAVIKCTYSDSASNYFPWYKQELGKGPQLIIDIRSNVGEKKDQRIAVTLNKTAKHFSLHITETQPEDSAVYFCAAHTPGYSTLTFGKGTMLLVSP
Vbeta: DTGVSQNPRHKITKRGQNVTFRCDPISEHNRLYWYRQTLGQGPEFLTYFQNEAQLEKSRLLSDRFSAERPKGSFSTLEIQRTEQGDSAMYLCASSPRAGGETQYFGPGTRLLVL

binding result [1]: no recognition
binding result [2]: recognises
B7: TCR_1 (TCR, V domains shown)
Valpha: GENVEQHPSTLSVQEGDSAVIKCTYSDSASNYFPWYKQELGKGPQLIIDIRSNVGEKKDQRIAVTLNKTAKHFSLHITETQPEDSAVYFCAASDLNFGKGTSLLVTP
Vbeta: DTGVSQNPRHKITKRGQNVTFRCDPISEHNRLYWYRQTLGQGPEFLTYFQNEAQLEKSRLLSDRFSAERPKGSFSTLEIQRTEQGDSAMYLCASSLVSRVDGYTFGSGTRLTVV
